Measured values as given in US6200577A, “Anti-herpesviral agents and assays therefor” (priority 1996, dated 2001).

Assays:
[1] = Solubility of synthetic peptides in buffer; assay type: physicochemical; conditions: peptides dissolved in 20 mM Tris-HCl, pH 8.0, 250 mM NaCl; unpurified preparations
Description: Synthesis and Purification of Oligopeptides. Peptides were synthesised by continuous flow Fmoc chemistry (Atherton and Sheppard, 1989; McLean et al., 1991) and, where stated in the text, were purified by preparative reverse-phase HPLC (Owsianka et al., 1993). The Mr values of peptides were determined by fast atom bombardment mass spectrometry (M-Scan) and corresponded to the predicted values. Peptides were dissolved in 20 mM Tris-HCl, pH 8.0, 250 mM NaCl and centrifuged at 11,500 g for 1 minute prior to use. […] Precipitates were removed by centrifugation before use.

[2] = target: T1, VP16/VP22trunc interaction (Human herpesvirus 1, UniProt P06492); assay: Co-purification of VP16 with VP22trunc on Ni-NTA resin in presence of peptides; assay type: binding, HSV-1; conditions: crude peptide at 2 mg/ml (about 1 mM), equal volume mixed with partially purified VP16 extract before VP22trunc
T1 construct: Plasmid pETVP16 was used to express full-length VP16 under the control of the T7 RNA polymerase promoter; made in house; host or cells: E. coli BL21(DE3)
Description: FIG. 4 Co-elution of VP16 with VP22trunc from Ni-NTA resin. Partially purified extract containing VP16 was incubated in the absence of (lane 14) or presence of […] of VP22trunc (lanes 3 to 13). In lanes 3 to 12, an equal volume of the individual peptides at 2 mg/ml was added to the extract prior to VP22trunc. Peptides added to each reaction were as follows: lane 3, peptide A; lane 4, peptide B; lane 5, peptide C; lane 6, peptide D; lane 7, peptide E; lane 8, peptide F; lane 9, peptide G; lane 10, peptide H; lane 11, peptide I; lane 12, peptide J; lane 13, no peptide. Lanes 3 to 14 show the polypeptides eluted from Ni-NTA resin. Other samples were as follows: lane 1, partially purified VP16 extract, lane 2, purified VP16; lane 15, purified VP22trunc. Samples were electrophoresed on a 12% polyacrylamide gel and the apparent molecular weights of VP16 (65 KDa) and VP22trunc (16 KDa) are shown.
Co-purification of VP16 with VP22trunc on Ni-NTA Resin. Purified VP22trunc and a partially purified extract containing VP16, both in 20 mM Tris-HCl, pH8.0, 250 mM NaCl, were mixed at 4° C. for 15 to 30 minutes on a rotator. 50 μl of equilibrated Ni-NTA resin was added to each mixture and incubation was continued at 40C for a further 15 to 30 minutes. Resin was pelleted at 800 g for 1 minute and the supernatant (non-bound fraction) was removed. Resin was washed sequentially with 0.5 ml of 20 mM Tris-HCl, pH 8.0, 250 mM NaCl, 5 mM imidazole (twice) and 0.5 ml of 20 mM Tris-HCl, pH 8.0, 250 mM NaCl, 60 mM imidazole (four times). Bound protein was eluted by addition of 50 μl of boiling mix (160 mM Tris-HCl, pH 6.7, 2% SDS, 700 mM β-mercaptoethanol, 10% glycerol, 0.002% bromophenol blue) followed by heating to 100° C. for 5 minutes. For peptide studies, peptides were dissolved in 20 mM Tris-HCl, pH8.0, 250 mM NaCl at a concentration of 2 mg/ml. Incubation of peptides with partially purified VP16 extracts was performed at ambient temperature for 2 hours prior to the addition of VP22trunc. Samples were electrophoresed on denaturing polyacrylamide gels.
Results presented in Section 2(i) had shown that VP16 co-elutes from Ni-NTA resin in the presence of VP22trunc and it was concluded that this indicated interaction between these polypeptides. The ability of synthetic peptides to inhibit this interaction was analysed by mixing them individually with the partially purified VP16 extract prior to addition of VP22trunc. From the intensity of the 65 KDa species in the crude extract (FIG. 4, lane 2), it was estimated that the concentration of VP16 was approximately […]. To ensure that experiments were performed in an excess of peptide, peptides were prepared at a concentration of 2 mg/ml (about 1 mM) and equal volumes of peptide and extract were mixed. This gave a relative molar ratio of VP16 to peptide of 1:300. However, it should be noted that certain peptides were not completely soluble (Table 1) and in those cases, the ratio would be reduced.

[3] = target: T2, VP16 (Human herpesvirus 1, UniProt P06492); assay: ELISA of direct binding of VP16 to plate-coated peptides; set-up: species or system HSV-1; conditions: wells coated with peptide up to 500 μg/ml; VP16 1.6 μg/ml; FIG. 10
T2 construct: Plasmid pETVP16 was used to express full-length VP16 under the control of the T7 RNA polymerase promoter; made in house; host or cells: E. coli BL21(DE3)
Description: FIG. 10 Binding of VP16 to peptides. Microtitre plates were coated with 5-fold dilutions of peptides ranging from 500 μg/ml to 1 μg/ml and blocked with PBS/10% NCS. VP16 was then added to a final concentration of 1.6 μg/ml and detected with LP1. The legend for the peptides added is shown to the right of the graph.
Dilutions of proteins in PBS were coated overnight onto flat bottomed micro-titre plates (Dynatech) at 37° C. and then blocked with either 2% BSA or 10% new-born calf serum (NCS) in PBS for 1 hour at 37° C. Specific binding of a second protein to the plate-bound protein was performed for 1.5-2 hours at ambient temperature. a Excess secondary protein was removed by washing four times with PBS, 0.3% Tween 20. Bound protein was detected by incubation for 1.5-2 hours with LP1 antibody in PBS, 1% gelatin or PBS, 2% NCS. The bound antibody was detected by incubation for 1 hour at ambient temperature with anti-mouse antibody conjugated to HRP (1:500) and visualised with Smg/ml enzyme substrate 2,2'-azino-bis(3-ethylbenzthiazoline-6-sulphonic acid) (ABTS; Sigma) in citrate-phosphate buffer containing 6 μl hydrogen peroxide in a total volume of 20 ml. Optical densities were measured on a Titertek Multiscan PLUS instrument.
To examine whether VP16 could bind directly to the peptides, wells were coated with each peptide (A-J) at a range of concentrations from […] to 500 μg/ml and the plate was then blocked with […]. […] Nonetheless, the data for peptides D and E implicate direct binding of these peptides to VP16 as the mechanism for inhibiting its interaction with VP22. Peptide H also was active in experiments which prevented gB binding to VP22trunc [Section 4 (iii)] and thus also forms an aspect of the invention.

[4] = target: T3, gB/VP22trunc binding (Human herpesvirus 1, UniProt P10211); assay: Far Western analysis of peptide inhibition of GST-gB binding to VP22trunc; set-up: species or system HSV-1; conditions: peptide 250 μg/ml co-incubated with GST-gB 1.2 μg/ml; FIG. 12B
T3 construct: linked residues 798 to 904 of gB to the glutathione-S-transferase (GST) protein expressed by pGex2TNMCR; made in house; host or cells: GST-gB: E. coli DH5alpha; VP22trunc: E. coli BL21(DE3)
Description: (B) Inhibition of binding of GST-gB (final concentration 1.2 μg/ml)and each of the following peptides at a final concentration of 250 μg/ml: lane 1, no peptide; lane 2, peptide A; lane 3, peptide B; lane 4, peptide C; lane 5, peptide D; lane 6, peptide E; lane 7, peptide F; lane 8, peptide G; lane 9, peptide H; lane 10, peptide I; lane 11, peptide J. Bound GST-gB was detected with anti-GST antibody.
Following electrophoresis, proteins were electrotransferred to either Hybond or ProBlott (Applied Biosystems) membrane and the membrane was incubated in renaturation buffer (50 mM Tris-HCl, pH 8.0, 150 mM NaCl, 10% glycerol, 1 mM DTT) at 4° C. for 5-6 hours.
For membranes probed with GST-gB, blocking was performed overnight in PBSA containing 1% non-fat dried milk and 0.05% Tween 20 at 4° C. Membranes were then washed twice in renaturation buffer (10 min/wash) prior to incubation with fusion protein (final concentration 0.5 μg/ml) in renaturation buffer containing 1% BSA. Incubation was again performed overnight at 4° C. Following washing with renaturation buffer (four times, 10 minutes/wash) and a brief rinse with blocking buffer, the membrane was incubated with anti-GST antibody in PBSA, 1% non-fat dried milk, 0.05% Tween 20 and 1% BSA for 1 hour at ambient temperature. After four washes with PBSA, 0.05% Tween 20 (10 minutes/wash), bound antibody was detected with secondary antibody (goat anti-rabbit IgG, whole molecule; Sigma) conjugated to Horse Radish Peroxidase (HRP) by incubating at room temperature for 45 minutes. Following four further washes with PBSA, 0.05% Tween 20, the secondary antibody was visualised by enhanced chemiluminescence.
Similar to the studies performed with inhibition of binding of VP16 to VP22, peptides A to J, which span residues 18 to 144 of VP22trunc, were used to examine whether gB binding could also be prevented (FIG. 12B).

T3 sequence (P10211 798-904): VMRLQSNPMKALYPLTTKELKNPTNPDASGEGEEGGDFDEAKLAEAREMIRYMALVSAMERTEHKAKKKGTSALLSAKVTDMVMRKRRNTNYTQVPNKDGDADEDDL
T2 sequence (P06492 whole entry): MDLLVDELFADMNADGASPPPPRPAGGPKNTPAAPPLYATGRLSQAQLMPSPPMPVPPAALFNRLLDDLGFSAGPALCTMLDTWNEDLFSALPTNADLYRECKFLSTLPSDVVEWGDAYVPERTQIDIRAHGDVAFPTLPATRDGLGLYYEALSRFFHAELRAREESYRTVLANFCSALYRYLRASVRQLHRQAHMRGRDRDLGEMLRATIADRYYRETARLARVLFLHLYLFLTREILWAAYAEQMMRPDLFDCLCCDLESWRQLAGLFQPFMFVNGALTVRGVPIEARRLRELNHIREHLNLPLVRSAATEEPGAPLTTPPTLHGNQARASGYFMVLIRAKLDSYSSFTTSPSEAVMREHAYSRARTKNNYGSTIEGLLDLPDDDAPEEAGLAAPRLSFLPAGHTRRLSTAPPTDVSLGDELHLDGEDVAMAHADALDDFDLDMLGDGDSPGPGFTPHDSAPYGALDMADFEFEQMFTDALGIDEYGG
T1 sequence (P06492 whole entry): as above

## ITTIRVTVCEGKNLLQRANE [Peptide H]
[1]
  Solubility: soluble
[2]
  Co-elution of VP16 with VP22trunc from Ni-NTA resin after incubation with peptide: does not prevent interaction with VP22
[3]
  Direct binding of VP16 to plate-coated peptide (ELISA): evidence also for VP16 binding
[4]
  Inhibition of GST-gB binding to VP22trunc (Far Western): completely inhibited binding of gB
